# Patent publication US20230365662A1
# Several values for one entry are separate records, joined by “and”; a condition that tells them apart may be missing. Equal values may be shown once.
# B1: KB001 mouse Fab FASEBA VH D58S (Fab, V domains shown)
# VH: EVQLKQSGPGLVAPSQSLSITCTVSGFSLSIYSVHWVRQPPGKGLEWLGMIWGGGSSSYNSALKSRLSISKDNSKSQVFLKMNSLQTDDTAMYYCARNGNFYAMDYWGQGTSVTVSS
# VL: QIVLTQSPAIMSASLGERVTMTCTASSSVSSSFLHWYQQKPGSSPQLWIYSTSNLASGVPARFSGSGSGTSYSLTISSMEAEDAATYYCHQYHHSPYIYTFGGGTKLEIK
# B2: KB001 mouse Fab FASEBA VH S61Y (Fab, V domains shown)
# VH: EVQLKQSGPGLVAPSQSLSITCTVSGFSLSIYSVHWVRQPPGKGLEWLGMIWGGGSSDYNYALKSRLSISKDNSKSQVFLKMNSLQTDDTAMYYCARNGNFYAMDYWGQGTSVTVSS
# VL: QIVLTQSPAIMSASLGERVTMTCTASSSVSSSFLHWYQQKPGSSPQLWIYSTSNLASGVPARFSGSGSGTSYSLTISSMEAEDAATYYCHQYHHSPYIYTFGGGTKLEIK
# B3: KB001 mouse Fab FASEBA VH N60T (Fab, V domains shown)
# VH: EVQLKQSGPGLVAPSQSLSITCTVSGFSLSIYSVHWVRQPPGKGLEWLGMIWGGGSSDYTSALKSRLSISKDNSKSQVFLKMNSLQTDDTAMYYCARNGNFYAMDYWGQGTSVTVSS
# VL: QIVLTQSPAIMSASLGERVTMTCTASSSVSSSFLHWYQQKPGSSPQLWIYSTSNLASGVPARFSGSGSGTSYSLTISSMEAEDAATYYCHQYHHSPYIYTFGGGTKLEIK
# B4: KB001 mouse Fab FASEBA VH Y59F (Fab, V domains shown)
# VH: EVQLKQSGPGLVAPSQSLSITCTVSGFSLSIYSVHWVRQPPGKGLEWLGMIWGGGSSDFNSALKSRLSISKDNSKSQVFLKMNSLQTDDTAMYYCARNGNFYAMDYWGQGTSVTVSS
# VL: QIVLTQSPAIMSASLGERVTMTCTASSSVSSSFLHWYQQKPGSSPQLWIYSTSNLASGVPARFSGSGSGTSYSLTISSMEAEDAATYYCHQYHHSPYIYTFGGGTKLEIK
# B5: KB001 mouse Fab FASEBA VH Y59T (Fab, V domains shown)
# VH: EVQLKQSGPGLVAPSQSLSITCTVSGFSLSIYSVHWVRQPPGKGLEWLGMIWGGGSSDTNSALKSRLSISKDNSKSQVFLKMNSLQTDDTAMYYCARNGNFYAMDYWGQGTSVTVSS
# VL: QIVLTQSPAIMSASLGERVTMTCTASSSVSSSFLHWYQQKPGSSPQLWIYSTSNLASGVPARFSGSGSGTSYSLTISSMEAEDAATYYCHQYHHSPYIYTFGGGTKLEIK
# B6: KB001 mouse Fab FASEBA VH N60Q (Fab, V domains shown)
# VH: EVQLKQSGPGLVAPSQSLSITCTVSGFSLSIYSVHWVRQPPGKGLEWLGMIWGGGSSDYQSALKSRLSISKDNSKSQVFLKMNSLQTDDTAMYYCARNGNFYAMDYWGQGTSVTVSS
# VL: QIVLTQSPAIMSASLGERVTMTCTASSSVSSSFLHWYQQKPGSSPQLWIYSTSNLASGVPARFSGSGSGTSYSLTISSMEAEDAATYYCHQYHHSPYIYTFGGGTKLEIK
# B7: KB001 mouse Fab FASEBA VH Y59R (Fab, V domains shown)
# VH: EVQLKQSGPGLVAPSQSLSITCTVSGFSLSIYSVHWVRQPPGKGLEWLGMIWGGGSSDRNSALKSRLSISKDNSKSQVFLKMNSLQTDDTAMYYCARNGNFYAMDYWGQGTSVTVSS
# VL: QIVLTQSPAIMSASLGERVTMTCTASSSVSSSFLHWYQQKPGSSPQLWIYSTSNLASGVPARFSGSGSGTSYSLTISSMEAEDAATYYCHQYHHSPYIYTFGGGTKLEIK
# B8: KB001 mouse Fab FASEBA VH Y59M/S571 (Fab, V domains shown)
# VH: EVQLKQSGPGLVAPSQSLSITCTVSGFSLSIYSVHWVRQPPGKGLEWLGMIWGGGSIDMNSALKSRLSISKDNSKSQVFLKMNSLQTDDTAMYYCARNGNFYAMDYWGQGTSVTVSS
# VL: QIVLTQSPAIMSASLGERVTMTCTASSSVSSSFLHWYQQKPGSSPQLWIYSTSNLASGVPARFSGSGSGTSYSLTISSMEAEDAATYYCHQYHHSPYIYTFGGGTKLEIK
# B9: KB001 mouse Fab FASEBA VH S61R (Fab, V domains shown)
# VH: EVQLKQSGPGLVAPSQSLSITCTVSGFSLSIYSVHWVRQPPGKGLEWLGMIWGGGSSDYNRALKSRLSISKDNSKSQVFLKMNSLQTDDTAMYYCARNGNFYAMDYWGQGTSVTVSS
# VL: QIVLTQSPAIMSASLGERVTMTCTASSSVSSSFLHWYQQKPGSSPQLWIYSTSNLASGVPARFSGSGSGTSYSLTISSMEAEDAATYYCHQYHHSPYIYTFGGGTKLEIK
# B10: KB001 mouse Fab FASEBA VH N60P (Fab, V domains shown)
# VH: EVQLKQSGPGLVAPSQSLSITCTVSGFSLSIYSVHWVRQPPGKGLEWLGMIWGGGSSDYPSALKSRLSISKDNSKSQVFLKMNSLQTDDTAMYYCARNGNFYAMDYWGQGTSVTVSS
# VL: QIVLTQSPAIMSASLGERVTMTCTASSSVSSSFLHWYQQKPGSSPQLWIYSTSNLASGVPARFSGSGSGTSYSLTISSMEAEDAATYYCHQYHHSPYIYTFGGGTKLEIK
# B11: KB001 mouse Fab FASEBA VH Y59K (Fab, V domains shown)
# VH: EVQLKQSGPGLVAPSQSLSITCTVSGFSLSIYSVHWVRQPPGKGLEWLGMIWGGGSSDKNSALKSRLSISKDNSKSQVFLKMNSLQTDDTAMYYCARNGNFYAMDYWGQGTSVTVSS
# VL: QIVLTQSPAIMSASLGERVTMTCTASSSVSSSFLHWYQQKPGSSPQLWIYSTSNLASGVPARFSGSGSGTSYSLTISSMEAEDAATYYCHQYHHSPYIYTFGGGTKLEIK
# B12: KB001 mouse Fab FASEBA VH S61G (Fab, V domains shown)
# VH: EVQLKQSGPGLVAPSQSLSITCTVSGFSLSIYSVHWVRQPPGKGLEWLGMIWGGGSSDYNGALKSRLSISKDNSKSQVFLKMNSLQTDDTAMYYCARNGNFYAMDYWGQGTSVTVSS
# VL: QIVLTQSPAIMSASLGERVTMTCTASSSVSSSFLHWYQQKPGSSPQLWIYSTSNLASGVPARFSGSGSGTSYSLTISSMEAEDAATYYCHQYHHSPYIYTFGGGTKLEIK
# B13: KB001 mouse Fab FASEBA VH D58G (Fab, V domains shown)
# VH: EVQLKQSGPGLVAPSQSLSITCTVSGFSLSIYSVHWVRQPPGKGLEWLGMIWGGGSSGYNSALKSRLSISKDNSKSQVFLKMNSLQTDDTAMYYCARNGNFYAMDYWGQGTSVTVSS
# VL: QIVLTQSPAIMSASLGERVTMTCTASSSVSSSFLHWYQQKPGSSPQLWIYSTSNLASGVPARFSGSGSGTSYSLTISSMEAEDAATYYCHQYHHSPYIYTFGGGTKLEIK
# B14: KB001 mouse Fab FASEBA VH N60S (Fab, V domains shown)
# VH: EVQLKQSGPGLVAPSQSLSITCTVSGFSLSIYSVHWVRQPPGKGLEWLGMIWGGGSSDYSSALKSRLSISKDNSKSQVFLKMNSLQTDDTAMYYCARNGNFYAMDYWGQGTSVTVSS
# VL: QIVLTQSPAIMSASLGERVTMTCTASSSVSSSFLHWYQQKPGSSPQLWIYSTSNLASGVPARFSGSGSGTSYSLTISSMEAEDAATYYCHQYHHSPYIYTFGGGTKLEIK
# B15: KB001 mouse Fab FASEBA VH S61W (Fab, V domains shown)
# VH: EVQLKQSGPGLVAPSQSLSITCTVSGFSLSIYSVHWVRQPPGKGLEWLGMIWGGGSSDYNWALKSRLSISKDNSKSQVFLKMNSLQTDDTAMYYCARNGNFYAMDYWGQGTSVTVSS
# VL: QIVLTQSPAIMSASLGERVTMTCTASSSVSSSFLHWYQQKPGSSPQLWIYSTSNLASGVPARFSGSGSGTSYSLTISSMEAEDAATYYCHQYHHSPYIYTFGGGTKLEIK
# Target: HRgpA-6H (Porphyromonas gingivalis) (UniProt P28784)
# Assay: ELISA on coated HRgpA-6H
# Sequence of UniProt P28784 (P28784 228-991 limits assumed): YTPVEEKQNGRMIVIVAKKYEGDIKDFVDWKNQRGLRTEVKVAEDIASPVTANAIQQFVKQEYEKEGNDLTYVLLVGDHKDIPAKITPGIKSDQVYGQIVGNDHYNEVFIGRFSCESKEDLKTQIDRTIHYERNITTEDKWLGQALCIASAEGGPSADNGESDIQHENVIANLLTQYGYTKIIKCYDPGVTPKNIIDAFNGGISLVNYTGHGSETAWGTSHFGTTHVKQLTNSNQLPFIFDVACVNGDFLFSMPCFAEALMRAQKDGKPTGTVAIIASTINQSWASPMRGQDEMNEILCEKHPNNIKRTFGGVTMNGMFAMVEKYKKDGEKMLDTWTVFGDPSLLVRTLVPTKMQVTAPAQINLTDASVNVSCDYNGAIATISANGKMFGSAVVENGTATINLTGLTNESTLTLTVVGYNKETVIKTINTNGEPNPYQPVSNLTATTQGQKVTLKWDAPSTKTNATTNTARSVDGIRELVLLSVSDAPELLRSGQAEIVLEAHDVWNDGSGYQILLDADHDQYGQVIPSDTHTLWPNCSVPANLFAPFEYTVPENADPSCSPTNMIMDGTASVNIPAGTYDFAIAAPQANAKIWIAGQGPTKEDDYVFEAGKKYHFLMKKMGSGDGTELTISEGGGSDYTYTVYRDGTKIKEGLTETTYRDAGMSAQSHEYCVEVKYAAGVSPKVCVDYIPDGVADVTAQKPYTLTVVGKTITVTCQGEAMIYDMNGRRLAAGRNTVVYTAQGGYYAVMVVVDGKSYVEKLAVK
Binder,OD450nm,Ratio OD(Variant)/OD(WT)
B1,0.646,0.817
B2,0.423,0.857
B3,0.406,0.823
B4,0.668,0.845
B5,0.744,0.941
B6,0.447 and 0.402,0.906 and 0.815
B7,0.633,0.8
B8,0.701,0.886
B9,0.438,0.888
B10,0.44 and 0.428,0.892 and 0.867
B11,0.648,0.819
B12,0.46 and 0.476,0.932 and 0.965
B13,0.778,0.984
B14,0.452,0.916
B15,0.435 and 0.429,0.881 and 0.869
